# Data published in publication doi:10.1101/517573.
# B1: MBP-Sbh1 full length (natural protein)
# chain: MSSPTPPGGQRTLQKRKQGSSQKVAASAPKKNTNSNNSILKIYSDEATGLRVDPLVVLFLAVGFIFSVVALHVISKVAGKLF
# Target: hSgt2 M233D (Homo sapiens) (UniProt O43765)
# Experiment: pull-down
# Sequence of UniProt O43765 (O43765 213-313 M233D): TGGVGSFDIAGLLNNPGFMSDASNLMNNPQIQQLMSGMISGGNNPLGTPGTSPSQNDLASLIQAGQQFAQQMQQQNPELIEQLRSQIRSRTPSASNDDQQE
binder,measurement,value
B1,percent reduction of binding against wild type,36%
